Format in all cases: in vivo, Sprague-Dawley rats
For one experiment, the system named is TRPV1. Kind of experiment: Immunohistochemistry of masseter ganglion neurons after NGF injection: TRPV1. The conditions noted are these: 3 days after NGF 25 μg/ml, 10 μl; n=5 rats. Here is the method:
(§1) To identify trigeminal ganglion neurons that innervate the masseter muscle, the fluorescent tracer dye Fast Blue (2%, Polysciences, Warrington, PA) was injected bilaterally into the masseter muscles of rats (n=5),7 days prior to euthanization. NGF (25 μg/ml, 10 μI, Sigma, St. Louis, MO) or vehicle (phosphate buffered saline, PBS, 10 μI) was injected into the left and right masseter muscles, respectively, three days before euthanization. Under deep isoflurane anesthesia, animals were perfused with 120 ml cold saline followed by 120 ml of paraformaldehyde (4%). Trigeminal ganglia and masseter muscles were removed, incubated in 20% and then 40% sucrose for 48h each to cryoprotect the tissue, and cut into 10 μm sections with a cryotome. […] Fast Blue positive cells were counted and photographed for estimation of cell diameter. […]
(§2) For the immunohistochemistry experiment, the frequency of expression of CB1, CB2 and TRPV1, respectively, in trigeminal ganglion neurons between NGF and vehicle-injected sides was analyzed with a paired Student's t-test. For the behavioral and electrophysiological experiments, MT from NGF and vehicle-injected sides was analyzed with a two-way repeated measures analysis of variance (ANOVA) with time and treatment as factors. Relative mechanical activation threshold (Rel MT) was calculated as 100×Post-treatment MT/Baseline MT. […]

In another experiment the test system is CB2. Kind of experiment: Immunohistochemistry of masseter ganglion neurons after NGF injection: CB2. The conditions noted are these: 3 days after NGF 25 μg/ml, 10 μl; saline side 47±5%; n=5 rats. Here is the method: as §1, §2
In experiment [1] the test system is NGF-induced sensitization in female rat masseter muscle. Kind of experiment: Behavioral mechanical threshold (electronic von Frey) of NGF-sensitized masseter muscle. The conditions noted are these: 3 days after intramuscular injection of NGF 25 μg/ml, 10 μl. The text has this: Female (259-350 g, n=55) Sprague-Dawley rats were used for all experiments. Animals were housed in groups of two with a 12-h light/dark cycle. Food and water were given ad libitum. All animal procedures were reviewed and approved by the University of British Columbia Animal Care Committee.
Appropriate volumes of each solution were evaporated under nitrogen gas, and subsequently re-solubilized with 4% Tween 80 in isotonic saline to final concentrations used for injection.
Three days before behavioral experiments, rats received an injection of NGF (25 μg/ml, 10 μl, Sigma, St. Louis, MO) or vehicle (phosphate buffered saline, PBS, 10 μl) into the left and right masseter muscles, respectively, under brief isoflurane anesthesia. […] This is accompanied by an increase in NMDA receptor expression in peripheral trigeminal ganglion neurons with a peak at three days after injection (15). […] The masseter muscle region was shaved prior to injection and the injection sites were marked with a permanent marker for subsequent identification. The concentration of NGF was selected based on the concentration used in previous human experimental pain studies and experiments in rats (15, 24, 25, 26, 27). The investigator was blinded to the identity of the treatment groups until after all data was collected.
MT was assessed with a rigid electronic von Frey hair (IITC Life Science, Woodland Hills, CA). Before NGF injection, rats were habituated to restraint in a towel. […] The mechanical test stimulus was applied at 1 min intervals for 5 min and the average was calculated for further analysis. MT was measured daily for 5 days prior to the start of the experiment to determine that measurements were stable. MT readings recorded prior to NGF injection were used as naïve baseline. […] On the test day, a post-NGF injection baseline (NGF baseline) was recorded before injection of cannabinoid treatment groups. After treatment injections, MT was measured at 10, 30, 60, and 120 min after injection.
For the immunohistochemistry experiment, the frequency of expression of CB1, CB2 and TRPV1, respectively, in trigeminal ganglion neurons between NGF and vehicle-injected sides was analyzed with a paired Student's t-test. For the behavioral and electrophysiological experiments, MT from NGF and vehicle-injected sides was analyzed with a two-way repeated measures analysis of variance (ANOVA) with time and treatment as factors. Relative mechanical activation threshold (Rel MT) was calculated as 100×Post-treatment MT/Baseline MT. Post hoc Holm Sidak's multiple comparison tests were used to compare post injection mechanical thresholds between treatment groups at each time point. One-way repeated measures ANOVA on ranks was used to analyze test scores in the inverted screen tests. A probability level of 0.05 was considered significant for all tests. Error bars represented standard error of the mean.

A further experiment concerns CB1. Kind of experiment: Immunohistochemistry of masseter ganglion neurons after NGF injection: CB1. The settings on record: 3 days after NGF 25 μg/ml, 10 μl; saline side 52±3%; n=5 rats. The procedure:
as §1, §2

B1: NGF: nerve growth factor (Sigma) injected into masseter muscle to induce mechanical sensitization (protein, UniProt P01139 122-241, looked up)
Beta-nerve growth factor: SSTHPVFHMGEFSVCDSVSVWVGDKTTATDIKGKEVTVLAEVNINNSVFRQYFFETKCRASNPVESGCRGIDSKHWNSYCTTTHTFVKALTTDEKQAAWRFIRIDTACVCVLSRKATRRG
For the molecule B1, in the experiment with TRPV1, the “Effect on TRPV1 expression in masseter ganglion neurons” value is given as “No significant effect”. For the same molecule, in the experiment with CB2, the “Frequency of expression of CB2 in masseter ganglion neurons, NGF-injected side” value was determined as 33±6%. Besides, the “Decrease of masseter muscle MT” value in experiment [1] amounted to 31%. Also, in the experiment on CB1, the “Frequency of expression of CB1 in masseter ganglion neurons, NGF-injected side” value was 39±3%.

The values are drawn from US12357604B2, “Topical formulations of cannabinoids and use thereof in the treatment of pain” (INMED PHARMACEUTICALS INC., priority 2017, dated 2025).
